Values belong to the binder of their own block, whether it stands above or below them. Starred links: 1 amine or outer side, 2 acyl side, 3 side chain; linkers in the order of their positions; H or OH if unused. Non-standard residues stand in square brackets, D forms with d. Groups on a side chain read outwards from the residue. *: point of attachment. ButanoicP = (R)-4-(pyrrolidin-2-yl)butanoic acid, O=C(CCC[C@@H]1CCCN1[*:1])[*:2]; C18 diacid = O=C(O)CCCCCCCCCCCCCCCCC(=O)*; Dip = N[C@H](C(=O)O)C(c1ccccc1)c1ccccc1; Palmitoyl = CCCCCCCCCCCCCCCC(=O)*; NMeF = CN[C@@H](Cc1ccccc1)C(=O)O; β3hF = N[C@H](CC(=O)O)Cc1ccccc1; Isovaleryl = CC(C)CC(=O)*; (Me)Leu = methyl-leucine; AEEA = NCCOCCOCC(=O)O; Ahx = NCCCCCC(=O)O
Molecular target: T1, human ferroportin (SLC40A1) fused in frame with GFP, stably expressed in HEK293 cells (human, UniProt Q9NP59 1-571)
T1 sequence (looked up): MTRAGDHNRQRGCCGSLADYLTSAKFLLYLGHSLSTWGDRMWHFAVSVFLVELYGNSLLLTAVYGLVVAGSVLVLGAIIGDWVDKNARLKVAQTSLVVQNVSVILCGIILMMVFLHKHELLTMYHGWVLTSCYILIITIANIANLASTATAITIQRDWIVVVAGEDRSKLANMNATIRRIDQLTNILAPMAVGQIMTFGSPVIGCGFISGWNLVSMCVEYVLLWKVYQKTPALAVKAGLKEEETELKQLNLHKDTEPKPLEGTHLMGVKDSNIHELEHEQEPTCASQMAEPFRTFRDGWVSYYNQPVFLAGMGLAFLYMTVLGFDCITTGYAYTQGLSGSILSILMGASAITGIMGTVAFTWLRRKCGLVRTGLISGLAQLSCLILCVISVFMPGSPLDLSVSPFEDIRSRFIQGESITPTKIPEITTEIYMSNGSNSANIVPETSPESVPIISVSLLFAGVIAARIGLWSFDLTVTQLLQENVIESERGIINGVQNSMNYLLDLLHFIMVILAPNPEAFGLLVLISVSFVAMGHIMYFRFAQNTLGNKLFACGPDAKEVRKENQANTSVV
Experiment: cell-based or functional assay

- FPN EC50: 22.9 nM
B1: Isovaleric Acid-E-T-H-[Dpa]-P-I-[(D)Lys]-[bhPhe]-[Lys(Ahx_Palm)]-NH2 (peptide)
peptide: Isovaleryl-ETH[Dip]PI[dK][β3hF]K([Ahx-Palmitoyl])-NH2
SMILES: CCCCCCCCCCCCCCCC(=O)NCCCCCC(=O)NCCCC[C@H](NC(=O)C[C@H](Cc1ccccc1)NC(=O)[C@@H](CCCCN)NC(=O)[C@@H](NC(=O)[C@@H]1CCCN1C(=O)[C@@H](NC(=O)[C@H](Cc1c[nH]cn1)NC(=O)[C@@H](NC(=O)[C@H](CCC(=O)O)NC(=O)CC(C)C)[C@@H](C)O)C(c1ccccc1)c1ccccc1)[C@@H](C)CC)C(N)=O

- FPN EC50: 71.2 nM
B2: Isovaleric Acid-E-T-H-[Dpa]-[ButanoicP]-[bhPhe]-[Lys(Ahx_Palm)]-NH2 (peptide)
peptide: Isovaleryl-ETH[Dip][ButanoicP][β3hF]K([Ahx-Palmitoyl])-NH2
SMILES: CCCCCCCCCCCCCCCC(=O)NCCCCCC(=O)NCCCC[C@H](NC(=O)C[C@H](Cc1ccccc1)NC(=O)CCC[C@@H]1CCCN1C(=O)[C@@H](NC(=O)[C@H](Cc1c[nH]cn1)NC(=O)[C@@H](NC(=O)[C@H](CCC(=O)O)NC(=O)CC(C)C)[C@@H](C)O)C(c1ccccc1)c1ccccc1)C(N)=O

- FPN EC50: 48.5 nM
B3: Isovaleric Acid-R-T-H-[Dpa]-P-A-I-[Lys(1PEG2_1PEG2_Ahx_C18_Diacid)]-[bhPhe]-[(D)Lys]-NH2 (peptide)
peptide: Isovaleryl-RTH[Dip]PAIK([AEEA-AEEA-Ahx-C18 diacid])[β3hF][dK]-NH2
SMILES: CC[C@H](C)[C@H](NC(=O)[C@H](C)NC(=O)[C@@H]1CCCN1C(=O)[C@@H](NC(=O)[C@H](Cc1c[nH]cn1)NC(=O)[C@@H](NC(=O)[C@H](CCCNC(=N)N)NC(=O)CC(C)C)[C@@H](C)O)C(c1ccccc1)c1ccccc1)C(=O)N[C@@H](CCCCNC(=O)COCCOCCNC(=O)COCCOCCNC(=O)CCCCCNC(=O)CCCCCCCCCCCCCCCCC(=O)O)C(=O)N[C@H](CC(=O)N[C@H](CCCCN)C(N)=O)Cc1ccccc1

- FPN EC50: 732 nM
B4: Isovaleric Acid-[(D)Arg]-T-H-[Dpa]-P-A-I-[Lys(1PEG2_1PEG2_Ahx_C18_Diacid)]-[bhPhe]-[(D)Lys]-NH2 (peptide)
peptide: Isovaleryl-[dR]TH[Dip]PAIK([AEEA-AEEA-Ahx-C18 diacid])[β3hF][dK]-NH2
SMILES: CC[C@H](C)[C@H](NC(=O)[C@H](C)NC(=O)[C@@H]1CCCN1C(=O)[C@@H](NC(=O)[C@H](Cc1c[nH]cn1)NC(=O)[C@@H](NC(=O)[C@@H](CCCNC(=N)N)NC(=O)CC(C)C)[C@@H](C)O)C(c1ccccc1)c1ccccc1)C(=O)N[C@@H](CCCCNC(=O)COCCOCCNC(=O)COCCOCCNC(=O)CCCCCNC(=O)CCCCCCCCCCCCCCCCC(=O)O)C(=O)N[C@H](CC(=O)N[C@H](CCCCN)C(N)=O)Cc1ccccc1

- FPN EC50: 27.2 nM
Binder: Isovaleryl-ETH[Dip]PLIK([Ahx-Palmitoyl])[NMeF]-NH2 [Isovaleric Acid-E-T-H-[Dpa]-P-L-I-[Lys(Ahx_Palm)]-[(Me)Phe]-NH2]

- FPN EC50: 65.7 nM
Binder: Isovaleryl-LTH[Dip]PAIK([AEEA-AEEA-Ahx-C18 diacid])[β3hF][dK]-NH2 [Isovaleric Acid-L-T-H-[Dpa]-P-A-I-[Lys(1PEG2_1PEG2_Ahx_C18_Diacid)]-[bhPhe]-[(D)Lys]-NH2]

- FPN EC50: 4.5 nM
B5: Isovaleric Acid-E-T-H-[Dpa]-P-L-I-[(D)Lys]-[bhPhe]-[Lys(Ahx_Palm)]-[(D)Lys]-L-NH2 (peptide)
peptide: Isovaleryl-ETH[Dip]PLI[dK][β3hF]K([Ahx-Palmitoyl])[dK]L-NH2
SMILES: CCCCCCCCCCCCCCCC(=O)NCCCCCC(=O)NCCCC[C@H](NC(=O)C[C@H](Cc1ccccc1)NC(=O)[C@@H](CCCCN)NC(=O)[C@@H](NC(=O)[C@H](CC(C)C)NC(=O)[C@@H]1CCCN1C(=O)[C@@H](NC(=O)[C@H](Cc1c[nH]cn1)NC(=O)[C@@H](NC(=O)[C@H](CCC(=O)O)NC(=O)CC(C)C)[C@@H](C)O)C(c1ccccc1)c1ccccc1)[C@@H](C)CC)C(=O)N[C@H](CCCCN)C(=O)N[C@@H](CC(C)C)C(N)=O

- FPN EC50: 1750 nM
B6: Isovaleric Acid-L-T-H-[Dpa]-P-A-I-[Lys(Ahx_Palm)]-[(Me)Phe]-NH2 (peptide)
peptide: Isovaleryl-LTH[Dip]PAIK([Ahx-Palmitoyl])[NMeF]-NH2
SMILES: CCCCCCCCCCCCCCCC(=O)NCCCCCC(=O)NCCCC[C@H](NC(=O)[C@@H](NC(=O)[C@H](C)NC(=O)[C@@H]1CCCN1C(=O)[C@@H](NC(=O)[C@H](Cc1c[nH]cn1)NC(=O)[C@@H](NC(=O)[C@H](CC(C)C)NC(=O)CC(C)C)[C@@H](C)O)C(c1ccccc1)c1ccccc1)[C@@H](C)CC)C(=O)N(C)[C@@H](Cc1ccccc1)C(N)=O

- FPN EC50: 8410 nM
Binder: XETHXPX (N-term Isovaleric Acid; Dpa4; Lys(Ac)6; C-term NH2) [Isovaleric Acid-E-T-H-[Dpa]-P-[Lys(Ac)]-NH2]

- FPN EC50: 814 nM
Binder: Isovaleryl-ETH[Dip]PAI[dK]K(Ac)-NH2 [Isovaleric Acid-E-T-H-[Dpa]-P-A-I-[(D)Lys]-[Lys(Ac)]-NH2]

- FPN EC50: 35700 nM
B7: Isovaleric Acid-E-T-H-[Dpa]-P-A-[Lys(Ac)]-NH2 (peptide)
peptide: Isovaleryl-ETH[Dip]PAK(Ac)-NH2
SMILES: CC(=O)NCCCC[C@H](NC(=O)[C@H](C)NC(=O)[C@@H]1CCCN1C(=O)[C@@H](NC(=O)[C@H](Cc1c[nH]cn1)NC(=O)[C@@H](NC(=O)[C@H](CCC(=O)O)NC(=O)CC(C)C)[C@@H](C)O)C(c1ccccc1)c1ccccc1)C(N)=O

- FPN EC50: 1040 nM
B8: Isovaleric Acid-E-T-H-[Dpa]-P-A-I-[Lys(Ac)]-NH2 (peptide)
peptide: Isovaleryl-ETH[Dip]PAIK(Ac)-NH2
SMILES: CC[C@H](C)[C@H](NC(=O)[C@H](C)NC(=O)[C@@H]1CCCN1C(=O)[C@@H](NC(=O)[C@H](Cc1c[nH]cn1)NC(=O)[C@@H](NC(=O)[C@H](CCC(=O)O)NC(=O)CC(C)C)[C@@H](C)O)C(c1ccccc1)c1ccccc1)C(=O)N[C@@H](CCCCNC(C)=O)C(N)=O

- FPN EC50: 2760 nM
Binder: Isovaleryl-LTH[Dip]P[(Me)Leu]IK([Ahx-Palmitoyl])L-NH2 [Isovaleric Acid-L-T-H-[Dpa]-P-[(Me)Leu]-I-[Lys(Ahx_Palm)]-L-NH2]

- FPN EC50: 31.9 nM
B9: Isovaleric Acid-E-T-H-[Dpa]-P-A-I-[Lys(Ahx_Palm)]-[bhPhe]-NH2 (peptide)
peptide: Isovaleryl-ETH[Dip]PAIK([Ahx-Palmitoyl])[β3hF]-NH2
SMILES: CCCCCCCCCCCCCCCC(=O)NCCCCCC(=O)NCCCC[C@H](NC(=O)[C@@H](NC(=O)[C@H](C)NC(=O)[C@@H]1CCCN1C(=O)[C@@H](NC(=O)[C@H](Cc1c[nH]cn1)NC(=O)[C@@H](NC(=O)[C@H](CCC(=O)O)NC(=O)CC(C)C)[C@@H](C)O)C(c1ccccc1)c1ccccc1)[C@@H](C)CC)C(=O)N[C@H](CC(N)=O)Cc1ccccc1

- FPN EC50: 2290 nM
Binder: Isovaleryl-LTH[Dip]P[(Me)Leu]IK([Ahx-Palmitoyl])[NMeF]-NH2 [Isovaleric Acid-L-T-H-[Dpa]-P-[(Me)Leu]-I-[Lys(Ahx_Palm)]-[(Me)Phe]-NH2]

- FPN EC50: 764 nM
B10: Isovaleric Acid-L-T-H-[Dpa]-P-L-I-[Lys(Ahx_Palm)]-[(Me)Phe]-NH2 (peptide)
peptide: Isovaleryl-LTH[Dip]PLIK([Ahx-Palmitoyl])[NMeF]-NH2
SMILES: CCCCCCCCCCCCCCCC(=O)NCCCCCC(=O)NCCCC[C@H](NC(=O)[C@@H](NC(=O)[C@H](CC(C)C)NC(=O)[C@@H]1CCCN1C(=O)[C@@H](NC(=O)[C@H](Cc1c[nH]cn1)NC(=O)[C@@H](NC(=O)[C@H](CC(C)C)NC(=O)CC(C)C)[C@@H](C)O)C(c1ccccc1)c1ccccc1)[C@@H](C)CC)C(=O)N(C)[C@@H](Cc1ccccc1)C(N)=O

- FPN EC50: 287 nM
Binder: Isovaleryl-LTH[Dip]PLIK([Ahx-Palmitoyl])[(Me)Leu]-NH2 [Isovaleric Acid-L-T-H-[Dpa]-P-L-I-[Lys(Ahx_Palm)]-[(Me)Leu]-NH2]

- FPN EC50: 593 nM
Binder: Isovaleryl-ETH[Dip]PAIK([AEEA-AEEA-Ahx-C18 diacid])-NH2 [Isovaleric Acid-E-T-H-[Dpa]-P-A-I-[Lys(1Peg2_1Peg2_Ahx_C18_Diacid)]-NH2]

- FPN EC50: 508 nM
Binder: Isovaleryl-LTH[Dip]PAIK([Ahx-Palmitoyl])[(Me)Leu]-NH2 [Isovaleric Acid-L-T-H-[Dpa]-P-A-I-[Lys(Ahx_Palm)]-[(Me)Leu]-NH2]

Source: US20240066131A1 (Protagonist Therapeutics, Inc., priority 2020, published 2024)
